Measurements published in patent US20240116985A1 (published 2024).
Starred links: 1 amine or outer side, 2 acyl side, 3 side chain; linkers in the order of their positions; H or OH if unused. Positions of bridges follow the written chain, without caps; N, C: chain ends. Non-standard residues stand in square brackets, D forms with d. Primed or numbered codes have the meaning given here. B5(29) = 2-amino-2-(pent-4-en-1-yl)hept-6-enoic acid (2,2-bis(4-pentenyl)glycine), stitching residue bearing both staples, C=CCCCC(CCCC=C)(N[*:1])C(=O)[*:2]; RdN″ = (R)-4-(((allyloxy)carbonyl)(methyl)amino)-2-amino-2-methylbutanoic acid (stapling residue), C=CCOC(=O)N(C)CC[C@@](C)(N[*:1])C(=O)[*:2]; B5(17) = 2,2-bis(4-pentenyl)glycine = 2-amino-2-(pent-4-en-1-yl)hept-6-enoic acid, stitching residue, C=CCCCC(CCCC=C)(N[*:1])C(=O)[*:2]; B5(4) = 2,2-bis(4-pentenyl)glycine = 2-amino-2-(pent-4-en-1-yl)hept-6-enoic acid (stitching residue), C=CCCCC(CCCC=C)(N[*:1])C(=O)[*:2]; B5(6) = 2-amino-2-(pent-4-en-1-yl)hept-6-enoic acid (bis(4-pentenyl)glycine), stitching residue, C=CCCCC(CCCC=C)(N[*:1])C(=O)[*:2]; RdN = (R)-4-(((allyloxy)carbonyl)(methyl)amino)-2-amino-2-methylbutanoic acid, C=CCOC(=O)N(C)CC[C@@](C)(N[*:1])C(=O)[*:2]; B5(19) = 2-amino-2-(pent-4-en-1-yl)hept-6-enoic acid (bis(4-pentenyl)glycine), C=CCCCC(CCCC=C)(N[*:1])C(=O)[*:2]; Qui = (S)-2-amino-3-(quinolin-2-yl)propanoic acid, O=C([C@H](Cc1ccc2ccccc2n1)N[*:1])[*:2]; S7 = C[C@@](CCCCCC=[*:3])(N[*:1])C(=O)[*:2]; 2Nal = N[C@@H](Cc1ccc2ccccc2c1)C(=O)O; Bta = N[C@@H](Cc1csc2ccccc12)C(=O)O; αAllylPro = C=CC[C@@]1(C(=O)O)CCCN1; S8 = C=CCCCCCC[C@](C)(N)C(=O)O; hSer = N[C@@H](CCO)C(=O)O; Aib = CC(C)(N)C(=O)O

T1: full-length beta-Catenin (Uniprot ID P35222) (Homo sapiens (Human), UniProt P35222 2-781)
T1 construct: the AlphaScreen assay uses a Histidine (Nickel Chelate) detection kit, so a His tag is likely there; also called B-Catenin; bCat
T1 sequence: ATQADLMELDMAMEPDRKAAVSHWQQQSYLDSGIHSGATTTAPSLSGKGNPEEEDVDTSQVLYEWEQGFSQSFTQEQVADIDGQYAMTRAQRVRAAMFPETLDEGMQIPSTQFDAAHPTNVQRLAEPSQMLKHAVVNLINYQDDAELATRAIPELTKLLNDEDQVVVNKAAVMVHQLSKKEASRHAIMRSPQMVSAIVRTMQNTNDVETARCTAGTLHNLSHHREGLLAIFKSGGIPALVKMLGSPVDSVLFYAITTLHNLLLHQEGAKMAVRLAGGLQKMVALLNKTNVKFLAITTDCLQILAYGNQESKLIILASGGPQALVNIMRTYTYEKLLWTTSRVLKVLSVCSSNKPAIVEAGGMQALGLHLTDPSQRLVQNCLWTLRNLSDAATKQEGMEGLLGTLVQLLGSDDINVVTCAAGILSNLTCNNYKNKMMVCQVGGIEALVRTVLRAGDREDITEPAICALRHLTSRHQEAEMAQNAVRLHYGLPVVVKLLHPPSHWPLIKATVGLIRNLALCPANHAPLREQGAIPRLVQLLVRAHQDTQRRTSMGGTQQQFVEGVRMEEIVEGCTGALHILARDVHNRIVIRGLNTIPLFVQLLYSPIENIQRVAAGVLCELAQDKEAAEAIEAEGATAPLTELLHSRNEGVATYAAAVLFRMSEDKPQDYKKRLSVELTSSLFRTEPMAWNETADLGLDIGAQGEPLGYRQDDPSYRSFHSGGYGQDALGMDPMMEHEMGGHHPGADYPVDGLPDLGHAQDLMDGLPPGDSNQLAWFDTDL

T2: full-length beta-Catenin (Uniprot ID P35222) (Homo sapiens (Human), UniProt P35222 2-781)
T2 construct: No tag is stated for the FP assay; also called bCat; B-Catenin
T2 sequence: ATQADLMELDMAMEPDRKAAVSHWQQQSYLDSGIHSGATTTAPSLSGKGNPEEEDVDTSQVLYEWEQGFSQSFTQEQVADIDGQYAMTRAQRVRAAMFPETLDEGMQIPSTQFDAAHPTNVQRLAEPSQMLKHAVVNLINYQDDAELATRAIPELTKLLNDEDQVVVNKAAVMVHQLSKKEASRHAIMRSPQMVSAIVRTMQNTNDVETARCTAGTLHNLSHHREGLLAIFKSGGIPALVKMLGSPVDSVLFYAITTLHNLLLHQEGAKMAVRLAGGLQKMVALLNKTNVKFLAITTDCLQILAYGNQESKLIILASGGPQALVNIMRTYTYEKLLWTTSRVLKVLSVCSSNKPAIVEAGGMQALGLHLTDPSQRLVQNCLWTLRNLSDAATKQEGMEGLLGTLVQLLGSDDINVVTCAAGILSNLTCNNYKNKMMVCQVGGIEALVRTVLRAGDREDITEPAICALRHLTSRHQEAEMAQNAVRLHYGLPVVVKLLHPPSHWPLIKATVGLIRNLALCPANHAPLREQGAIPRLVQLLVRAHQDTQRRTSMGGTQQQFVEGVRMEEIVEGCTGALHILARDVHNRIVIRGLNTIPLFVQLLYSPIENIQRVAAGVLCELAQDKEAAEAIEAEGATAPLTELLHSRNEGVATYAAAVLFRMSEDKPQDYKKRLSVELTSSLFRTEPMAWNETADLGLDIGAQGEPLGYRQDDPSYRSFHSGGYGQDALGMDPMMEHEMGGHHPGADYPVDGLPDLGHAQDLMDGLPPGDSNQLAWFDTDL


Legend:
[1] = molecular target: T1, full-length beta-Catenin (Uniprot ID …); experiment: AlphaScreen competition; full-length beta-catenin with biotin-TCF4(10-53) probe as competitor
Experimental: Equal volume of the titrated peptide was added to the plate and incubated for 15 minutes at 20° C. Then 4 uL of donor and 4 uL acceptor beads at 10 ug/mL were added to the plate, for a 16 uL reaction pool and protected from light for 60 minutes at 20° C. prior to read. Reads were performed on a CLARIOstar plate reader (BMG Labtech) in duplicate, and data were fitted to a 1:1 binding model with hill slope using an in-house script. All provided concentrations are final concentrations.

[2] = molecular target: T1, full-length beta-Catenin (Uniprot ID …); experiment: fluorescence polarization competition; full-length beta-catenin with 5FAM-TCF4(10-53) probe as competitor
Experimental: (§1) The plate was incubated protected from light for 60 minutes at 20° C. prior to read. Reads were performed on a CLARIOstar plate reader (BMG Labtech) in duplicate, and data were fitted to a 1:1 binding model with hill slope using an in-house script. All provided concentrations are final concentrations.

[3] = molecular target: T2, full-length beta-Catenin (Uniprot ID …); experiment: as above
Experimental: as §1

Row | Binder | EC50 [1] [µM] | EC50 [2] [µM] | IC50 [3] [µM]
1 | Ac-ADI[RdN″]DEAAFQ[S7]FW-NH2 (staple 4-11, stapled peptide composition) [I-148] | 0.398 | 2.77 | –
2 | Ac-[αAllylPro]DA[B5(4)]DEAAFV[S8]FWA-NH2 (staple 1-4, 4-11, stapled (stitched) peptide composition) [I-135] | 0.279 | 1.87 | –
3 | XDAXDXAAFVXFWQ (not fully specified; as printed: Ac-PL3-Asp-Ala-B5-Asp-EtGA-Ala-Ala-Phe-Val-S8-Phe-Trp-Gln-NH2; N-terminal acetyl, C-terminal amide; PL3(1), B5(4), EtGA(6), S8(11); staples PL3-B5 and B5-S8 by olefin metathesis, stapled peptide) [I-173] | – | 3.12 | –
4 | Ac-[αAllylPro]DA[B5(19)]DEAAFV[S8]F[2Nal]Q-NH2 (staple 1-4, 4-11, stapled peptide composition) [I-140] | 0.934 | 2.27 | –
5 | ADIXDEAAFAXFWA (not fully specified; as printed: Ac-Ala-Asp-Ile-RdN-Asp-Glu-Ala-Ala-Phe-Ala-S7-Phe-Trp-Ala-NH2; N-terminal acetyl, C-terminal amide; RdN(4), S7(11); staple RdN-S7 by olefin metathesis, stapled peptide) [I-154] | 0.828 | 5 | –
6 | XDAXDEAAFQXFXQ (not fully specified; Ac-PL3-Asp-Ala-B5-Asp-Glu-Ala-Ala-Phe-Gln-S8-Phe-BztA-DGIn-NH2 (so in the source); D-Gln at 14); N-terminal acetyl, C-terminal amide; PL3(1)-B5(4) and B5(4)-S8(11) stapled by olefin metathesis; BztA at 13, Stapled (stitched) peptide composition) [I-494] | – | – | 0.082
7 | Ac-[αAllylPro]DT[B5(29)]DEAAFQ[S8]F[Bta]Q-NH2 (staple 1-4, 4-11, Stapled (stitched) peptide composition) [I-477] | – | – | 0.119
8 | Ac-[αAllylPro]DA[B5(17)]DEAAFQ[S8]F[Bta][hSer]-NH2 (staple 1-4, 4-11; also: earlier eluting HPLC peak, E/Z not assigned, Stapled peptide; this is the earlier eluting HPLC peak (staple isomer composition)) [I-491] | – | – | 0.153
9 | XDAXDEAAFQXFXS (not fully specified; Ac-PL3-Asp-Ala-B5-Asp-Glu-Ala-Ala-Phe-Gln-S8-Phe-BztA-DSer-NH2; N-terminal acetyl, C-terminal amide; PL3(1)-B5(4) and B5(4)-S8(11) stapled by olefin metathesis; BztA at 13; D-Ser at 14, Stapled (stitched) peptide composition) [I-493] | – | – | 0.088
10 | Ac-[αAllylPro]DA[B5(6)][hSer]EAAFQ[S8]F[Bta]Q-NH2 (staple 1-4, 4-11; not fully specified; printed as Ac-PL3-Asp-Ala-B5-Hse-Glu-Ala-Ala-Phe-Gln-S8-Phe-BztA-Gln-NH2, Stapled peptide; this is the second eluting HPLC peak (staple isomer composition)) [I-497] | – | – | 5
11 | Ac-[αAllylPro]DA[B5(17)]DEAAFQ[S8]F[Bta][hSer]-NH2 (staple 1-4, 4-11; also: later eluting HPLC peak, E/Z not assigned, Stapled peptide; this is the later eluting HPLC peak (staple isomer composition)) [I-492] | – | – | 0.053
12 | Ac-[αAllylPro]DA[B5(17)][hSer]EAAFQ[S8]F[Bta]Q-NH2 (staple 1-4, 4-11; not fully specified; printed as Ac-PL3-Asp-Ala-B5-Hse-Glu-Ala-Ala-Phe-Gln-S8-Phe-BztA-Gln-NH2, Stapled peptide; this is the first eluting HPLC peak (staple isomer composition)) [I-496] | – | – | 5
13 | Ac-[αAllylPro]DA[B5(6)][hSer]EAAFQ[S8]F[Bta]Q-NH2 (staple 1-4, 4-11; not fully specified; printed as Ac-PL3-Asp-Ala-B5-Hse-Glu-Ala-Ala-Phe-Gln-S8-Phe-BztA-Gln-NH2, Stapled peptide; this is the third eluting HPLC peak (staple isomer composition)) [I-498] | – | – | 5
14 | XDIXDEAAFQXFXN (not fully specified; Ac-PL3-Asp-Ile-B5-Asp-Glu-Ala-Ala-Phe-Gln-S8-Phe-BztA-Asn-NH2; N-terminal acetyl, C-terminal amide; PL3(1)-B5(4) and B5(4)-S8(11) stapled by olefin metathesis; BztA at 13, Stapled (stitched) peptide composition) [I-495] | – | – | 0.181
15 | Ac-[αAllylPro]DA[B5(4)]DEAAFV[S8]F[Qui]Q-NH2 (staple 1-4, 4-11, stapled peptide composition) [I-143] | 0.733 | 2.27 | –
16 | Ac-[Aib]DI[RdN]DEAAFQ[S7]FW-NH2 (staple 4-11, stapled peptide composition) [I-147] | 0.328 | 1.64 | –
17 | XDAXDXAAFVXFWQ (not fully specified; as printed: Ac-PL3-Asp-Ala-B5-Asp-EtGA-Ala-Ala-Phe-Val-S8-Phe-Trp-Gln-NH2; N-terminal acetyl, C-terminal amide; PL3(1), B5(4), EtGA(6), S8(11); staples PL3-B5 and B5-S8 by olefin metathesis, stapled peptide) [I-172] | – | 5 | –
18 | Ac-[αAllylPro]DA[B5(4)]DEAAFV[S8]F[Bta]Q-NH2 (staple 1-4, 4-11, stapled peptide composition) [I-144] | 0.066 | 0.146 | –
